According to patent US20200317768A1 (published 2020):
Numbering of substitutions follows the chain as printed. Names may count otherwise.

T1: cynomolgus monkey FcγRIIa3 extracellular domain with C-terminal His-tag (cynomolgus monkey)
T1 construct: Expressed in FreeStyle 293 cells and purified; also called cyno FcγRIIa3; cynoFcgRIIa3; not shown: C-terminal His-tag
T1 chain: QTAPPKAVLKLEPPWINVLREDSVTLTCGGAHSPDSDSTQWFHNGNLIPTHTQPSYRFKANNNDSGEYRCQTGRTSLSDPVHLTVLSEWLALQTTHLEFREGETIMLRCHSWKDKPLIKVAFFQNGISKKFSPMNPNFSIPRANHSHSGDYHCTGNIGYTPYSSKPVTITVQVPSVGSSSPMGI

T2: human FcγRIIb extracellular domain with C-terminal His-tag (human, UniProt P31994 43-217)
T2 construct: Expressed in FreeStyle 293 cells and purified; also called humanFcgRIIb; not shown: C-terminal His-tag
T2 sequence: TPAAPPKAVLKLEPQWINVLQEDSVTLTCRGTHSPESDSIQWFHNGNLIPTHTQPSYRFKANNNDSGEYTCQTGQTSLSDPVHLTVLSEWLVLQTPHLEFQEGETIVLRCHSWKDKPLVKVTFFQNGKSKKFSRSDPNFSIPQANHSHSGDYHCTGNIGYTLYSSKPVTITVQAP

T3: cynomolgus monkey FcγRIIa2 extracellular domain with C-terminal His-tag (cynomolgus monkey)
T3 construct: Expressed in FreeStyle 293 cells and purified; also called cyno FcγRIIa2; cynoFcgRIIa2; not shown: C-terminal His-tag
T3 chain: T1 chain with I127K, K130N, P133H, R142Q

T4: cynomolgus monkey FcγRIIb extracellular domain with C-terminal His-tag (cynomolgus monkey)
T4 construct: Expressed in FreeStyle 293 cells and purified; also called cyno FcγRIIb; cynoFcγRIIb; not shown: C-terminal His-tag
T4 chain: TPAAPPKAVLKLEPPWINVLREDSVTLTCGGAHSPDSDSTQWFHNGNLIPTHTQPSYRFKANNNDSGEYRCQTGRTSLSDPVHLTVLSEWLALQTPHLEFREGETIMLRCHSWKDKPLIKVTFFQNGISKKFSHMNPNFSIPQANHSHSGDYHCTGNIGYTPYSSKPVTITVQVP

T5: cynomolgus monkey FcγRIIIaS extracellular domain with C-terminal His-tag (cynomolgus monkey, UniProt Q8SPW2 21-206 at identity 1.00))
T5 construct: Expressed in FreeStyle 293 cells and purified; also called cyno FcγRIIIaS; cynoFcγRIIIaS; not shown: C-terminal His-tag
T5 chain: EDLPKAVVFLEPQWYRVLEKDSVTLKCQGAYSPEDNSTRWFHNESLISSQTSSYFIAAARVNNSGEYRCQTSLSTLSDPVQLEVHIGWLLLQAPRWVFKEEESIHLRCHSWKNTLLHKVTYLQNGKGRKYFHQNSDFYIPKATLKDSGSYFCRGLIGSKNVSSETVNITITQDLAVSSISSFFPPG

T6: human FcγRIIaH extracellular domain with C-terminal His-tag (human, UniProt P12318 34-217)
T6 construct: Expressed in FreeStyle 293 cells and purified; also called human FcγRIIa (type H); FcgRIIaH; not shown: C-terminal His-tag
T6 sequence: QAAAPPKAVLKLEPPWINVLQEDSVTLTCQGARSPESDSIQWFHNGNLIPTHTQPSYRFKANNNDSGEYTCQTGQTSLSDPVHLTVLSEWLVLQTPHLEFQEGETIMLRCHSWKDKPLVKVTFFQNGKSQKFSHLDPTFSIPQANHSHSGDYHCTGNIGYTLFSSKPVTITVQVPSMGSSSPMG

T7: cynomolgus monkey FcγRIIa1 extracellular domain with C-terminal His-tag (cynomolgus monkey)
T7 construct: Expressed in FreeStyle 293 cells and purified; also called cyno FcγRIIa1; cynoFcgRIIa1; not shown: C-terminal His-tag
T7 chain: T1 chain with T95P, A121T, S128A, P133H, N135D

T8: human FcγRIIaR extracellular domain with C-terminal His-tag (human, UniProt P12318 34-217)
T8 construct: Expressed in FreeStyle 293 cells and purified; also called human FcγRIIa (type R); FcgRIIaR; not shown: C-terminal His-tag
T8 chain: T6 sequence with H134R

B1: M103205H795-MY208 / M103202L889-SK1 (antibody, human IgG1, kappa)
heavy: QVTLKESGPVLVKPTETLTLTCTVSGIDLSHDDISWVRQAPGKGLEWVGIISYAGSTYYASWAKGRLTISKDTSKNQVVLTMTNMDPVDTATYYCARGVPAYSHGGDLWGQGTLVTVSSASTKGPSVFPLAPSSKSTSGGTAALGCLVKDYFPEPVTVSWNSGALTSGVHTFPAVLQSSGLYSLSSVVTVPSSSLGTQTYICNVNHKPSNTKVDKKVEPKSCDKTHTCPPCPAPELLNGPSVFLFPPKPKDTLMISRTPEVTCVVVDVSDEDPEVKFNWYVDGVEVHNAKTKPREELYNSTYRVVSVLTVLHQDWLNGKEYKCKVSNKALPAPIEKTISKAKGQPREPQVYTLPPSREEMTKNQVSLTCLVKGFYPSDIAVEWESNGQPENNYKTTPPVLDSDGSFFLYSKLTVDKSRWQQGNVFSCSVMHEALHNHYTQKSLSLSP
light: DIVMTQSPATLSLSPGERATLSCTSSQSVYHANWLSWFQQKPGQPPKLLIYWASTLAYGVPSRFSGSGSGTDFTLTISSLQPEDAATYYCAGGYGGGRYAFGQGTKVEIKRTVAAPSVFIFPPSDEQLKSGTASVVCLLNNFYPREAKVQWKVDNALQSGNSQESVTEQDSKDSTYSLSSTLTLSKADYEKHKVYACEVTHQGLSSPVTKSFNRGEC
notes: Fc variant of M103205H795-SG1, expressed with M103202L889-SK1 as light chain
B2: M103205H795-MY212 / M103202L889-SK1 (antibody, human IgG1, kappa)
heavy: B1 heavy with S241V, K328T, A332K
light: B1 light
notes: as for B1
B3: M103205H795-MY330 / M103202L889-SK1 (antibody, human IgG1, kappa)
heavy: B1 heavy with L237W, D270E, L297Q, A332K, P398M
light: B1 light
notes: as for B1
B4: M103205H795-MY288 / M103202L889-SK1 (antibody, human IgG1, kappa)
heavy: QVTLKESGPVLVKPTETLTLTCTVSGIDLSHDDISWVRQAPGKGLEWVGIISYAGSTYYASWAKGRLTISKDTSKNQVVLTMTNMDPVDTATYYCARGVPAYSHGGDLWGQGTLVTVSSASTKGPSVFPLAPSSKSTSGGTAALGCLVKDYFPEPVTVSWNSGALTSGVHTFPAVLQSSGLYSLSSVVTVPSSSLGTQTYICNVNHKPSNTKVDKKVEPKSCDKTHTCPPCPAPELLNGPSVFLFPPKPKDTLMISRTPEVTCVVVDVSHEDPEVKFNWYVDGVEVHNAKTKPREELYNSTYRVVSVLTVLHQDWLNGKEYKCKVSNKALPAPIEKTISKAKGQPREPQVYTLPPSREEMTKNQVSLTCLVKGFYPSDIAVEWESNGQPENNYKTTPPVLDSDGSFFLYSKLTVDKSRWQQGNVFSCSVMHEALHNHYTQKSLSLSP
light: B1 light
notes: as for B1
B5: M103205H795-MY440 / M103202L889-SK1 (antibody, human IgG1, kappa)
heavy: B1 heavy with L237W, A332K
light: B1 light
notes: as for B1
B6: M103205H795-MY289 / M103202L889-SK1 (antibody, human IgG1, kappa)
heavy: B1 heavy with D270H, L297Q, A332K, P398M
light: B1 light
notes: as for B1
B7: M103205H795-MY210 / M103202L889-SK1 (antibody, human IgG1, kappa)
heavy: B1 heavy with L297Q, K328T, A332K
light: B1 light
notes: as for B1
B8: M103205H795-MY211 / M103202L889-SK1 (antibody, human IgG1, kappa)
heavy: B1 heavy with S241V, L297Q, K328T, A332K
light: B1 light
notes: as for B1
B9: M103205H795-MY538 (Table 19; L235W/G236N/H268D/Q295L/K326T/A330K) / M103202L889-SK1 (antibody, human IgG1, kappa)
heavy: B1 heavy with L237W, K328T, A332K
light: B1 light
notes: Fc variant of M103205H795-SG1, expressed with M103202L889-SK1; the text names MY518 for this set of substitutions; also called probably MY518 of the text
B10: M103205H795-MY434 / M103202L889-SK1 (antibody, human IgG1, kappa)
heavy: B1 heavy with L237W, L297Q, A332K
light: B1 light
notes: as for B1

Target: T1, cynomolgus monkey FcγRIIa3 …
Assay: SPR (Biacore); KD of SG1 divided by KD of the variant for this FcgR;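 further: relative to parent M103205H795-SG1 carrying the SG1 human heavy chain constant region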

KD fold (SG1 = 1) [fold] | Binder
2.5 | B1
5.9 | B2
3.6 | B3
3.6 | B4
3.5 | B5
2 | B6
7.4 | B7
6.3 | B8
7.1 | B9
2.7 | B10

Target: T2, human FcγRIIb extracellular domain with …
Assay: as above

KD fold (SG1 = 1) [fold] | Binder
4.2 | B1
7.3 | B2
6.9 | B3
0.9 | B4
5.8 | B5
1.6 | B6
4.7 | B7
5.6 | B8
9.6 | B9
3.3 | B10

Target: T3, cynomolgus monkey FcγRIIa2 …
Assay: as above

KD fold (SG1 = 1) [fold] | Binder
5.4 | B1
9.6 | B2
2.3 | B3
2.6 | B4
2.8 | B5
3.4 | B6
8.1 | B7
3.8 | B8
5.7 | B9
2.1 | B10

Target: T9, human FcγRIIIaV extracellular domain with C-terminal His-tag (human, UniProt P08637 17-208)
T9 construct: Expressed in FreeStyle 293 cells and purified; also called FcgRIIIaV; not shown: C-terminal His-tag
Assay: as above

T9 sequence (P08637 17-208 F176V): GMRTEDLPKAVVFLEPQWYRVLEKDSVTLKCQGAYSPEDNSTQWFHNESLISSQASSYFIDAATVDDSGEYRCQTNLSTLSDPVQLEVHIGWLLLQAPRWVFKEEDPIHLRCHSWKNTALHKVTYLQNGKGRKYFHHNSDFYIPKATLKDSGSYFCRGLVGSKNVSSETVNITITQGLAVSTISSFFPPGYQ

KD fold (SG1 = 1) [fold] | Binder
0.08 | B1
0.12 | B2
0.07 | B3
0.01 | B4
0.05 | B5
0.11 | B6
0.05 | B7
0.17 | B8
0.04 | B9
0.05 | B10

Target: T4, cynomolgus monkey FcγRIIb extracellular …
Assay: as above

KD fold (SG1 = 1) [fold] | Binder
2.8 | B1
4.9 | B2
3 | B3
3.5 | B4
5.9 | B5
2.4 | B6
6.4 | B7
3.8 | B8
6.9 | B9
2.4 | B10

Target: T5, cynomolgus monkey FcγRIIIaS …
Assay: as above

KD fold (SG1 = 1) [fold] | Binder
0.18 | B1
0.14 | B2
0.05 | B3
0.08 | B4
0.04 | B5
0.07 | B6
0.15 | B7
0.12 | B8
0.09 | B9
0.03 | B10

Target: T6, human FcγRIIaH extracellular domain …
Assay: as above

KD fold (SG1 = 1) [fold] | Binder
0.8 | B1
0.9 | B2
0.7 | B3
0.5 | B4
0.8 | B5
0.3 | B6
0.6 | B7
0.6 | B8
0.8 | B9
0.4 | B10

Target: T7, cynomolgus monkey FcγRIIa1 …
Assay: as above

KD fold (SG1 = 1) [fold] | Binder
2.7 | B1
5.7 | B2
1.5 | B3
2.1 | B4
2 | B5
2.5 | B6
3.4 | B7
4.3 | B8
3.6 | B9
1.1 | B10

Target: T8, human FcγRIIaR extracellular domain …
Assay: as above

KD fold (SG1 = 1) [fold] | Binder
0.5 | B1
0.8 | B2
1.2 | B3
0.1 | B4
1 | B5
0.8 | B6
0.8 | B7
0.8 | B8
1.6 | B9
0.6 | B10
